According to the DeepSol protein solubility set:

test: soluble on expression in E. coli; label from the status in PepcDB or PDB records

| Sequence | soluble on expression in E. coli |
| --- | --- |
| MEPPLTVGAWTMTADSTVTEPIAAAATTTIVADVAIVGGGLAGSLAAAVLARAGHRVALVDKRAVYPDEFRVEKIGGPQLEMFRRLGFIRGLASVACPYDQVLNVREGKVVDVSVGQAYGLPYAGLVAMARGQIPDPSSLIVDEVTAVTCSDDVQHLELASGRRLNARLVVLATGMAGALGYKLGIRRRVLAAGHSVSFGFTIVRRDGTPFDFKALTCYGERTSDGVDYLSLFPVPAGMRANLFMFRDPTDPVMRDLRRDTEATVLRLLPGLQPYLGDFRVTDRVQNWVMDLSVVEGHLQPGVVLIGDAFQTNCPAAGTGVARLLVDVERLCTEYAPRWLATEGMGKEKISEFYSDRDKIAADQQSLKMARFRQALTSRDDISWDVRRRLHFLRRSITHRVDQMRPGWLAQVRSALRALEHHHHHH | not soluble |
| MEPPSSRPEEPPSWEDLYKINLMPSELFLKFRKELQGLRVGVNLELYNEPTNDYHAKLVLKPLCPERKWKFIYEPLHQEVRVLSKKIPVTRFLNLQVGVGHNFQMNAIGWKWKLTSCLGGDGVSRIRNKTTLGLSPGIDFRFGWRADFVLPEVTGALGTEEPLFNMSSGRLEASLDRVEAIVTHSDYL | soluble |
| MEPTGLMVAAPTASLPEAIGGERNWDYRFTWIRDTAYVIEALSSIGYKYEATEFLYDMMDMITRDNRIRTIYSIDDSNDLEERIIDYEGYRGSRPVRIGNKAVDQLQIDQYGSIVRAIHSMAKAGGIVNSYLWDFVEQVMAKIEYLWKYPDSSIWEFRTEPKQYVYSKVMSWAAFDSAISMAKDLGLSAPIKQWKSIQDEIKKEVLEKGFDTDTNSFVQYYGSKNIDAALLRLPILGFIPANDEKFLGTLSRIEKELMVDGYLFKRYREDDGLKGDEGSFLMLTFWYIEDLILMKRLKKAREVLESVLEKANHLGLYSEEIDEKSGDFLGNFPQALSHLGVIRVAPKLEEALLKRTSKINSLEHHHHHH | not soluble |
| MEQKQRRFTKNIFVLDVTAKTLCGAIAKLSSQPYCQIKIGRVVAFKPVKNPEPKGYVLNVPGPGAYRIQDGQDIISLMLTPHGVEATTERWEEWKFEGVSVTPMATRVQYNGVMVDAEIKYCKGMGIVQPYMRNDFDRNEMPDLPGVMRSNYDIRELRQKIKNERESAPRLQVHSVARPGSENLYPQ | soluble |
| MEQLNICIDIDGTITDAYYWIDLCNSYFKTSITEKDATQYYIHKILNVPLEEYNEFYEKYKYKLHSEQKLRKDVKSVITKLSQNNNIFFVTARERDLTILTYSYLRKKEIPYDSLFILGTHHKVPTARQLNCDLFIEDNYDNALELSKAGFKVLLIDTYYNRKPLNQNIIRFYNWDEVYGIVDRLFEKSEAI | not soluble |
| MEQLNKMAPKDVRALIREGKINGPTAGMSGGYAQANLVVLKKDLAFDFLLFCQRNQKPCPVLDVTEAGSPVPSLLRRMLISRTDFPKYRIYRHGILTEEVSDITPYWEDDFVGFLIGCSFSFEQALINNGIAVRHIDEGTNVSMYKTNIDCFPVGAFHGQMVVSMRPVPERLAVRAAQVTSRFPAVHGGPIHIGNPGAIGIRDLGKPDFGDAVSIRDGEVPVFWACGVTPQAVAMNVKPEMVITHAPGHMLITDIRDESLAVLLEHHHHHH | soluble |
| MERAPLLELKGIRKRFGELEVLRGVDLALYPGEILALLGPSGCGKTTLLRVVAGLEVPDAGRVFLEGRDITALPPEKRGIGFVFQDYALFPHLTALGNVAFGLKGKDRLARARKALERVGMTLFQDRRPGELSGGQQQRVALARALAPGPKLVLLDEPFSSLDAGLRAATREEVRKVLKETGTAALLVTHDQEEALSFADRLGVMRGGEILQVGTPEEVYLRPKTPFVAQFLGRTNLLPGEGRGRYAETCLGRVPLAEAREGPLLLSLRPEALRLTPPGQGPQGEVVAREFKGHDLTYRVRLHGVQPEREVLVQEGPTCPFKVGDRVGLEVVGEGVALEGTPPAPVRQEA | soluble |
| MERIAFVYMGGDEFKWLFFEVYDRVRRFMKDVNLGIIPIYAGKIKLPPGMLVRVNAGNGYIKMYPFEAVVEALYGKLVEMRDDVKDDTLTKIFGITTFPIGSRKQYFDIYKKYLGIQVSIGNYNVLALSIKPFYTENRELFVERVFKGVLHEIGHLYGLSHCKNDCVMNPPNDLKDWDRRAPSYCNSCLRELKRKVKPMPLLLHRAYECFHC | not soluble |
| MERKHHFVLVHNAYHGAWIWYKLKPLLESAGHRVTAVELAASGIDPRPIQAVETVDEYSKPLIETLKSLPENEEVILVGFSFGGINIALAADIFPAKIKVLVFLNAFLPDTTHVPSHVLDKYMEMPGGLGDCEFSSHETRNGTMSLLKMGPKFMKARLYQNCPIEDYELAKMLHRQGSFFTEDLSKKEKFSEEGYGSVQRVYVMSSEDKAIPCDFIRWMIDNFNVSKVYEIDGGDHMVMLSKPQKLFDSLSAIATDYM | soluble |
| MERPLARNEVTRLGPDSKFHHAGLRRGLSPATLRKLDAISRLRVFPRDAVVVPQGGALEYVGNVVRGVLRMERLLSDGRSQIVGLLVPTDMFGRVFSERSDYSVEAATEVTLCCFERHAFEALVRTCPDLEHAVLLAVLDELDAAREWITLRAGPTVAARLATYLLMLCRRWPHQTSELTQDAKRIVVNVPIARNDLAHYLGTTVESISRAVQAFSRDGIISILTPLRFEILDLPALIALSDNEEFDAHALLEGLREEQRVSP | not soluble |
| MERPQLDSMSQDLSEALKEATKEVHIRAENSEFMRNFQKGQVSREGFKLVTASLYHIYTALEEEIERNKQNPVYAPLYFPEELHRRAALEQDLAFWYGPHWQEAIPYTPATQHYVKRLHEVGGTHPELLVAHAYTRYLGDLSGGQVLKKIAQKALALPSSGEGLASFTFPSIDNPTKFKQLYRARMNTLELTPEVKHRVTEEAKTAFLLNIELFEELQALLTEEHKDQSPSQTEFLRQRPASLVQDTTSAETPRGKSQISTSSSQTP | soluble |
| MERVYRTDLKLLRYFLAVAEELHFGRAAARLNMSQPPLSIHIKELENQLGTQLFIRHSRSVVLTHAGKILMEESRRLLVNANNVLARIEQIGRGEAGRIELGVVGTAMWGRMRPVMRRFLRENPNVDVLFREKMPAMQMALLERRELDAGIWRMATEPPTGFTSLRLHESAFLVAMPEEHHLSSFSTVPLEALRDEYFVTMPPVYTDWDFLQRVCQQVGFSPVVIREVNEPQTVLAMVSMGIGITLIADSYAQMNWPGVIFRPLKQRIPADLYIVYETQQVTPAMVKLLAALTQ | soluble |
| MESDTSRTPYNSIYATLKNKKTDGEVVCCVHGRRCSYGKGNQDGKRDDNQYVNLPFLKNQDQIASKLTGKLNKLKIAEEKENKIVPREKPEMMSLNTLVEIARAGEQPRKGRGDKEKRTKKAPVLVDDSQLYVMIGPPSEHPGEPPASEPTETYKTNTIDESTFKGSEALSAYIGVVTLANAENHLTRRGEFALYHLFNPNGRLDTITDKLPLMIVYRTTTKKNRHYSIRTTCDQQFFVDCGYPNVRKHYSLSHLVMFYKTSATCEINPDDTSADSFSWWLE | not soluble |
| MESLLTLPLAGEARVRILQITDTHLFAEKHETLLGVNTWESYQAVLEAIRAQQYEYDLIVATGDLAQDQSAAAYQHFAEGIASFRAPCVWLPGNHDFQPAMYSALQEAGISPAKRVLIGEQWQILLLDSQVFGVPHGELSEFQLEWLERKLADAPERQTLLLLHHHPLPAGCSWLDQHSLRNAGELDSVLANFPRVKYLLCGHIHQELDLDWNGRRLLASPSTCVQFKPHCANFTLDTIAPGWRTLELRANGVLETEVHRLQDTRFRPDTASEGY | not soluble |
| MESNNNEKKKVARQSSSFRLRSPSLNALRLQRIFDLFDKNGDGFITVEELSQALTRLGLNADLSDLKSTVESYIQPGNTGLNFDDFSSLHKTLDDSFFGGACGGGENEDDPSSAAENESDLAEAFKVFDENGDGFISARELQTVLKKLGLPEGGEMERVEKMIVSVDRNQDGRVDFFEFKNMMRTVVIPSS | soluble |
| MESNTWNTIHDNKKENAALNDVQVEVNYAIKLDDQWTVRPGMLTHFSSNGTRYGPYVKLSWDATKDLNFGIRYRYDWKAYRQQDLSGDMSRDNVHRWDGYVTYHINSDFTFAWQTTLYSKQNDYRYANHKKWATENAFVLQYHMTPDITPYIEYDYLDRQGVYNGRDNLSENSYRIGVSFKL | not soluble |
